Measured values taken from patent US9176064B2, “Bisubstrate fluorescent probes for protein kinase CK2” (University of Tartu, priority 2012, dated 2015).
Where a SMILES comes first, the peptide text is derived from it. [ ]: non-standard residue; d: D form. The star is where a group is joined. X1 = O=C(CCCCCCCn1cnc2c(Br)c(Br)c(Br)c(Br)c21)*

Key:
Assay in all cases: Kinase panel residual activity
Assay type in all cases: biochemical
Settings in all cases: compound at 1 micromolar
[1] = biological target: DYRK1A (Homo sapiens, UniProt Q13627)
[2] = biological target: RSK2 (Homo sapiens, UniProt P51812)
RSK2, sequence (P51812 whole entry, species assumed): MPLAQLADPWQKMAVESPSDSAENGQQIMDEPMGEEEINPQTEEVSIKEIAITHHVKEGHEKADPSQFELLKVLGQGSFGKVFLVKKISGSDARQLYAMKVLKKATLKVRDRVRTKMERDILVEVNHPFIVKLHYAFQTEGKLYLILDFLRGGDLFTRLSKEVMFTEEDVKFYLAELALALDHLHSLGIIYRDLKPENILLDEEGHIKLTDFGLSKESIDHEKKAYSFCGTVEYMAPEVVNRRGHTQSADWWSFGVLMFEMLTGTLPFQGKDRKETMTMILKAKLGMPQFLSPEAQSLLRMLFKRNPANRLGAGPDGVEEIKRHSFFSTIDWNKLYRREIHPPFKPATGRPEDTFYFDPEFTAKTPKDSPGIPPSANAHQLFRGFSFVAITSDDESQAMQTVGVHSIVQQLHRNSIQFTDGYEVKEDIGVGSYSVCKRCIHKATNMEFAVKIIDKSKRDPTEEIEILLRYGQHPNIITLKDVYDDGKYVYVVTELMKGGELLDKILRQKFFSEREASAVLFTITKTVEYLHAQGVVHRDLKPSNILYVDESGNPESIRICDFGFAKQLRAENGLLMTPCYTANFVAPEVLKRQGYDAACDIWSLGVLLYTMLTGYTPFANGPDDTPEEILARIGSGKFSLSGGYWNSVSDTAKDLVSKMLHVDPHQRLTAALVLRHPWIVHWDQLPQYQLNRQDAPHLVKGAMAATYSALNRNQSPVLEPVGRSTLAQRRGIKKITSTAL

[3] = biological target: T1, BRSK2 (Homo sapiens, UniProt Q8IWQ3)
T1 sequence (Q8IWQ3 1-736): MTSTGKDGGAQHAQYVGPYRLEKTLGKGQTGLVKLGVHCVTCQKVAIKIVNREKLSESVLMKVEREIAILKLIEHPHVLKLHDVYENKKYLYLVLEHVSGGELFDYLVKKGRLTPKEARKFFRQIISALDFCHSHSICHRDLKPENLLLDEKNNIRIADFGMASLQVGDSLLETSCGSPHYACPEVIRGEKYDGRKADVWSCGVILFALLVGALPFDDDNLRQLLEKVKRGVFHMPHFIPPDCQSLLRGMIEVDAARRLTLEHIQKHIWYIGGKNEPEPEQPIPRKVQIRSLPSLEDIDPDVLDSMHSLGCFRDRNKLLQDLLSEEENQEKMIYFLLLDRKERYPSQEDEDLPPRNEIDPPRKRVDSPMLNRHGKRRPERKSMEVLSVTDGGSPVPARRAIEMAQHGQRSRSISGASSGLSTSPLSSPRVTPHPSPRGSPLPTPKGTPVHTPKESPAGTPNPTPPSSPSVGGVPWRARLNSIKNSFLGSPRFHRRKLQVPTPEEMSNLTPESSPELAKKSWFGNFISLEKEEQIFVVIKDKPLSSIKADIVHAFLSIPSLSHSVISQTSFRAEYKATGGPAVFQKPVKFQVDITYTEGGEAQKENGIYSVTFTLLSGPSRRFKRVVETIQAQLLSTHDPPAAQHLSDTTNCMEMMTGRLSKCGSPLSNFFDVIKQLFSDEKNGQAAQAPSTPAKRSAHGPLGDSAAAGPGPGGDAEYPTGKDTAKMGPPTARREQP

[4] = biological target: EF2K (Homo sapiens, UniProt O00418)
EF2K, sequence (O00418 whole entry): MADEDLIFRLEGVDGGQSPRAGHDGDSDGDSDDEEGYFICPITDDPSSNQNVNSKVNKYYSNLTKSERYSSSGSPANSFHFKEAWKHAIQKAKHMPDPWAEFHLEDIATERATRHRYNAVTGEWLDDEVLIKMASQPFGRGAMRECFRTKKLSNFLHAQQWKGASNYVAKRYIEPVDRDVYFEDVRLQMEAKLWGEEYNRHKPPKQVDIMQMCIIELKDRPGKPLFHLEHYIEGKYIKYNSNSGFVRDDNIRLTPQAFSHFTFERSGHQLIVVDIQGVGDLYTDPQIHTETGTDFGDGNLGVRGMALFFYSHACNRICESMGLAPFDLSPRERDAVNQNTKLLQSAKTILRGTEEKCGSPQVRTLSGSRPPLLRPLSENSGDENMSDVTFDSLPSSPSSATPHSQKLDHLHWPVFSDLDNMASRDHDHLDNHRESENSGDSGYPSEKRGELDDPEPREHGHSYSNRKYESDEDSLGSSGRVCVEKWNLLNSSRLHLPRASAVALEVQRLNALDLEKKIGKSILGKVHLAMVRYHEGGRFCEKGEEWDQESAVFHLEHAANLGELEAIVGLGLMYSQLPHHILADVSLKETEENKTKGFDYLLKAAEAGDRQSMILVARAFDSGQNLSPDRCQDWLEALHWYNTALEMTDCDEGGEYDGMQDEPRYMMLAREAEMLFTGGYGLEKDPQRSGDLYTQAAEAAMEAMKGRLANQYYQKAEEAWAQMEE

[5] = biological target: WNK1 (Homo sapiens, UniProt Q9H4A3)
[6] = biological target: SmMLCK (Homo sapiens, UniProt Q15746)
SmMLCK, sequence (Q15746 923-1914): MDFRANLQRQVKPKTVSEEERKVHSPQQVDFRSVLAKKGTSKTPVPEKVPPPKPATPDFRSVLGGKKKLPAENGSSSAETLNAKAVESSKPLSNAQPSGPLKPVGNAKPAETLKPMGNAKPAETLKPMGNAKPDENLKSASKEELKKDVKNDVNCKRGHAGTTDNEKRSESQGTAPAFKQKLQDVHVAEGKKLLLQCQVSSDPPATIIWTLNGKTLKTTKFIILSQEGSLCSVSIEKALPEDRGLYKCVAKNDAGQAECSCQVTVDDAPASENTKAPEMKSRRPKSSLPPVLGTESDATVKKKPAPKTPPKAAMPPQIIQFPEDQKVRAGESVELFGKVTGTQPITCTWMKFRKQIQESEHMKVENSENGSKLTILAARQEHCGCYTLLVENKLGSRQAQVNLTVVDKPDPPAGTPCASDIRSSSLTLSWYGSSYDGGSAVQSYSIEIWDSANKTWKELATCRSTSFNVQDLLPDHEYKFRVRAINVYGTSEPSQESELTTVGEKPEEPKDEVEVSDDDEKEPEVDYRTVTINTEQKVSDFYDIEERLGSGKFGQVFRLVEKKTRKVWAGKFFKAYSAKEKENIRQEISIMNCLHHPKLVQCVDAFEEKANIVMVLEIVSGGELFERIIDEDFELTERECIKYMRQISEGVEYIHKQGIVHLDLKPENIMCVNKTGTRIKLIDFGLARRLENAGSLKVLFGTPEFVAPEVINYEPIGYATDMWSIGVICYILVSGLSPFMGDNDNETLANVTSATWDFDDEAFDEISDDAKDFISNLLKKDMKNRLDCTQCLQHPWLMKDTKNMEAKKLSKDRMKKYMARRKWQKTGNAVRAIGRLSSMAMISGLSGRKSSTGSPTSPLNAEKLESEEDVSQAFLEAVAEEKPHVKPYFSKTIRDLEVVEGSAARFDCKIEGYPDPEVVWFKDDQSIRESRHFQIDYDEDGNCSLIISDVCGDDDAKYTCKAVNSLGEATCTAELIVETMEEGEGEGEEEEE

[7] = biological target: T2, MST2 (Homo sapiens, UniProt Q13188)
T2 sequence (Q13188 1-491): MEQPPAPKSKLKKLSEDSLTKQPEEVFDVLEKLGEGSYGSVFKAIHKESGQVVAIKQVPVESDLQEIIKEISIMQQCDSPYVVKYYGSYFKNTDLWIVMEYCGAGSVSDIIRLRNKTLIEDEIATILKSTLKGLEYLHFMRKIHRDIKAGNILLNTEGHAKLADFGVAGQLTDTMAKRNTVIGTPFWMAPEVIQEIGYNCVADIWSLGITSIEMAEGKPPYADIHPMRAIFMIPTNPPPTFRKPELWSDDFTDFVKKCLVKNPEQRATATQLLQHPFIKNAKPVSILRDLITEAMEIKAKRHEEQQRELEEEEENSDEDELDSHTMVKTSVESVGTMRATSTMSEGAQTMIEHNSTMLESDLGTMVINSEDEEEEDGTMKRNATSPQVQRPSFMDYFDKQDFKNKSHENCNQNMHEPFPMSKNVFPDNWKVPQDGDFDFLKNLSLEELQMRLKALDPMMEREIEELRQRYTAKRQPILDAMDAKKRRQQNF

[8] = biological target: T3, ULK2 (Homo sapiens, UniProt Q8IYT8)
T3 sequence (Q8IYT8 1-1036): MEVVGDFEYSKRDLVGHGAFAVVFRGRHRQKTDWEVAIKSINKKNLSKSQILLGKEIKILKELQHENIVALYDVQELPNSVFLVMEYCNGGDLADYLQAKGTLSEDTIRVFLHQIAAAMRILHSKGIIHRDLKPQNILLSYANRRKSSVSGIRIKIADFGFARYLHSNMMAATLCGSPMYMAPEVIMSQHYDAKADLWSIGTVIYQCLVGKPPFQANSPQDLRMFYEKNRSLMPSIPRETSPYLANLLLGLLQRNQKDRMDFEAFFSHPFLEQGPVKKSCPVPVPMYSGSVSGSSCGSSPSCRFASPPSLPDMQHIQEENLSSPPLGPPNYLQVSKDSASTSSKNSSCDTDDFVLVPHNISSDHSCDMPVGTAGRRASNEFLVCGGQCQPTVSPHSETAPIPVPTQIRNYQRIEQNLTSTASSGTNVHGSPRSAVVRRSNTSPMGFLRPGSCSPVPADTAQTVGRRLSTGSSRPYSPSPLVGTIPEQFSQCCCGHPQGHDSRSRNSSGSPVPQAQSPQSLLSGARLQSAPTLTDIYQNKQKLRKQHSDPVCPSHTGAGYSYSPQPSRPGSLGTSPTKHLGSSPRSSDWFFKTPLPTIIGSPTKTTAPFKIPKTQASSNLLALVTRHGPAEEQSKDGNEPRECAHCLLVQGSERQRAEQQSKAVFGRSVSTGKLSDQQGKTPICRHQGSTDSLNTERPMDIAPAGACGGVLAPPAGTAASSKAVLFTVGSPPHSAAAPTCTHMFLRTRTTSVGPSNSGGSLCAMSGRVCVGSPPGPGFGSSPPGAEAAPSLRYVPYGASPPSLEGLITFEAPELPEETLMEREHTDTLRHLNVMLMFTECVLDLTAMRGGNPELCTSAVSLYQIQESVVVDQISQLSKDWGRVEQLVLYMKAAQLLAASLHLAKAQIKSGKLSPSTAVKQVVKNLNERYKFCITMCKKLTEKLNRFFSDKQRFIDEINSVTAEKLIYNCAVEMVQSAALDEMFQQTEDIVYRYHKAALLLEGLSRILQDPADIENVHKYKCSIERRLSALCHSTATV

[9] = biological target: MLK1 (Homo sapiens, UniProt P80192)
MLK1, sequence (P80192 whole entry, species assumed): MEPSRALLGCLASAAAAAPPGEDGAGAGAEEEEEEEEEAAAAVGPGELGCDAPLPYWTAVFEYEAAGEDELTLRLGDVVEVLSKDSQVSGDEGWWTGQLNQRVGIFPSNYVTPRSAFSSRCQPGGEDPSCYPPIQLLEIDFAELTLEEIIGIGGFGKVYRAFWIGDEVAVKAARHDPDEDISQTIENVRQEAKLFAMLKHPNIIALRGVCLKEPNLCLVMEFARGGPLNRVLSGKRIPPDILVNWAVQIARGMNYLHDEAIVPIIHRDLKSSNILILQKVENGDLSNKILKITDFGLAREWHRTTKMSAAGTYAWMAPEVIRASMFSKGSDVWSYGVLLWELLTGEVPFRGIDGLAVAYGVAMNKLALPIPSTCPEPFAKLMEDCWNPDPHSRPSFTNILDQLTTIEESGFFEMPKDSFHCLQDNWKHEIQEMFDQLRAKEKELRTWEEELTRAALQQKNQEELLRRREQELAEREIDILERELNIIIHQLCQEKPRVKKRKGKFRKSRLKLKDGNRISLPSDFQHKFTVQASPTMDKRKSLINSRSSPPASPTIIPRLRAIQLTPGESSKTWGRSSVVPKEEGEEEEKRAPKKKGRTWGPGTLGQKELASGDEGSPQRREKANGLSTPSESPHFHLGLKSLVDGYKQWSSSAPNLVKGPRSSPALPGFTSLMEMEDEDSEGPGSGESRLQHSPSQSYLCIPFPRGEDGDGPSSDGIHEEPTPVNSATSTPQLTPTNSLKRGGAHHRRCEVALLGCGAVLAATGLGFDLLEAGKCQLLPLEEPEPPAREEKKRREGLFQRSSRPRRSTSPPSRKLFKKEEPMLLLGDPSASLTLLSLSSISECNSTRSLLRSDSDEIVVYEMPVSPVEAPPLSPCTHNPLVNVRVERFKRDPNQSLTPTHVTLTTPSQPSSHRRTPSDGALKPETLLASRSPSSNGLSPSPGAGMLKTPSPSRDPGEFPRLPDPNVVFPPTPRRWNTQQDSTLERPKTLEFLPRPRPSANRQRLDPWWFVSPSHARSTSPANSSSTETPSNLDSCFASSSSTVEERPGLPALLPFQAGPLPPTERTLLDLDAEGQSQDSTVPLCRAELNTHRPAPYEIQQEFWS

## NCCCC[C@H](NC(=O)[C@H](CC(=O)O)NC(=O)[C@H](CC(=O)O)NC(=O)[C@H](CC(=O)O)NC(=O)[C@H](CC(=O)O)NC(=O)[C@H](CC(=O)O)NC(=O)[C@@H](CC(=O)O)NC(=O)CCCCCCCn1cnc2c(Br)c(Br)c(Br)c(Br)c21)C(=O)O [TBBI-OcA-(D-Asp)-(L-Asp)5-(L-Lys)-OH] (X1-[dD]DDDDDK-OH)
[1]
  remaining activity at 1 µM: 36%
[2]
  remaining activity at 1 µM: 70%
[3]
  remaining activity at 1 µM: 75%
[4]
  remaining activity at 1 µM: 80%
[5]
  remaining activity at 1 µM: 88%
[6]
  remaining activity at 1 µM: 96%
[7]
  remaining activity at 1 µM: 99%
[8]
  remaining activity at 1 µM: 110%
[9]
  remaining activity at 1 µM: 112%
